# Reference: US20220002395A1 (FAPON BIOTECH, published 2022)
# Numbering of substitutions follows the chain as printed. Read-outs that look alike come from different tables or passages of the source.
# T1: Plasmodium falciparum histidine-rich protein II (HRP-II) (Plasmodium falciparum, UniProt P05227 22-332)
# T1 construct: Coating antigen of all ELISAs; also called HRP-II protein; MA-HRPII Ag protein
# T1 sequence (looked up): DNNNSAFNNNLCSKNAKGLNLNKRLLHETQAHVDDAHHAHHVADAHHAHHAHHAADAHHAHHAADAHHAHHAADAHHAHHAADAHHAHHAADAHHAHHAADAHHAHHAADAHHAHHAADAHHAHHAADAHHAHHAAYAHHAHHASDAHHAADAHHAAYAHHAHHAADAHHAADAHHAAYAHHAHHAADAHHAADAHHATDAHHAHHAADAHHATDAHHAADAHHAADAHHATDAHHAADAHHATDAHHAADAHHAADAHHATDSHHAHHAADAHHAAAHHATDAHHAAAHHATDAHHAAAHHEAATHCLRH
# B1: Anti-HRP-II 3R5 monoclonal antibody (recombinant, expressed in CHO cells; WT) (antibody, mouse IgG2b, kappa, V domains shown)
# VH: EVQLQQSGPEVVKPGASVKISCKASGSTLTEYYMNWVKQSHGKGLEWIGDLNPINGGTPYQQKFRDKATLTVDKSSNTAYMELRSLTSEDSALYYCTRGAEEYWGQGTTLTVSS
# VL: DVVLTQTPLSLSVTIGQPASISCKSSQSIIYSNGKIYINWFQQRPGQSPKRLMYQLSKIDPGIPDRFSGSGSETDFTLKISRVEAEDLGVYYCLQGTYSPNTFGGGTKLEIKR
# notes: Mouse IgG; also called Anti-HRP-H3R5; CHO transient-transfected cell supernatant
# B2: Mutation 1 (antibody, mouse IgG2b, kappa, V domains shown)
# VH: B1 VH with E31D, P59A, E102D
# VL: B1 VL with I38L, I59L, N101Q
# notes: also called Variant 1
# B3: Mutation 2 (antibody, mouse IgG2b, kappa, V domains shown)
# VH: B1 VH
# VL: B1 VL with I38L
# notes: WT as framework
# B4: Mutation 3 (antibody, mouse IgG2b, kappa, V domains shown)
# VH: B1 VH with E31Q, P59V, E102M
# VL: B1 VL with I38G, I59F, N101M
# notes: WT as framework
# B5: WT 1-5 (antibody, mouse IgG2b, kappa, V domains shown)
# VH: B1 VH with S27Y, L29I, N55Q
# VL: B1 VL with I29L, I30L, N33Q, G96A
# notes: WT as framework
# How the values were obtained:
# [1] = molecular target: T1, Plasmodium falciparum histidine-rich …; test: indirect ELISA, four antigen coating concentrations
# [2] = molecular target: T1, Plasmodium falciparum histidine-rich …; test: as above; remark: listed apart in the source
# [3] = molecular target: T1, Plasmodium falciparum histidine-rich …; test: indirect ELISA, coated MA-HRPII Ag 1 ug/ml, antibody 8 ng/ml
# [4] = molecular target: T1, Plasmodium falciparum histidine-rich …; test: indirect ELISA, coated MA-HRPII Ag 1 ug/ml, antibody 40 ng/ml
# [5] = molecular target: T1, Plasmodium falciparum histidine-rich …; test: indirect ELISA, coated MA-HRPII Ag 1 ug/ml, antibody 1.6 ng/ml
# [6] = molecular target: T1, Plasmodium falciparum histidine-rich …; test: indirect ELISA, coated MA-HRPII Ag 1 ug/ml, antibody 200 ng/ml
# [7] = molecular target: T1, Plasmodium falciparum histidine-rich …; test: indirect ELISA, coated MA-HRPII Ag 1 ug/ml, antibody 0.32 ng/ml
# [8] = molecular target: T1, Plasmodium falciparum histidine-rich …; test: indirect ELISA, coated MA-HRPII Ag 1 ug/ml, antibody 1000 ng/ml
# [9] = molecular target: T1, Plasmodium falciparum histidine-rich …; test: indirect ELISA, four antigen coating concentrations; remark: listed apart in the source
# Procedure: The OD values corresponding to different antibody concentrations with different coating concentrations are obtained. Under the same coating concentration, the antibody concentrations are used as an abscissa, the 00 values are used as an ordinate, and a logarithmic plot is made. […] An average value thereof is taken and a reciprocal thereof is calculated to get the affinity constant KD.
Binder,Kd [1],Kd [2],OD value at 450 nm (ref 630 nm) [3],OD value at 450 nm (ref 630 nm) [4],OD value at 450 nm (ref 630 nm) [5],OD value at 450 nm (ref 630 nm) [6],OD value at 450 nm (ref 630 nm) [7],OD value at 450 nm (ref 630 nm) [8],Kd [9]
B1,0.633 nM,0.633 nM,0.122 OD,0.402 OD,0.053 OD,1.97 OD,0.058 OD,2.34 OD,–
B2,–,–,0.288 OD,0.695 OD,0.16 OD,2.4 OD,0.089 OD,2.52 OD,0.0521 nM
B3,–,–,0.189 OD,0.551 OD,0.101 OD,2.05 OD,0.077 OD,2.23 OD,–
B4,–,–,–,0.032 OD,–,0.635 OD,–,0.814 OD,–
B5,–,0.311 nM,–,–,–,–,–,–,–
